Target: DNMT3A (DNA methyltransferase 3A) (Homo sapiens (Human), UniProt Q9Y6K1 1-912)
Experiment: epitope mapping on a membrane of 12-mer DNMT3A peptides, 2 µg GST-ISGF3γ, fluorescence detection
Procedure: Then, 2 μg of GST-ISGF3γ protein were incubated with the membrane.

Chain of DNMT3A (DNA methyltransferase 3A) (Q9Y6K1 whole entry): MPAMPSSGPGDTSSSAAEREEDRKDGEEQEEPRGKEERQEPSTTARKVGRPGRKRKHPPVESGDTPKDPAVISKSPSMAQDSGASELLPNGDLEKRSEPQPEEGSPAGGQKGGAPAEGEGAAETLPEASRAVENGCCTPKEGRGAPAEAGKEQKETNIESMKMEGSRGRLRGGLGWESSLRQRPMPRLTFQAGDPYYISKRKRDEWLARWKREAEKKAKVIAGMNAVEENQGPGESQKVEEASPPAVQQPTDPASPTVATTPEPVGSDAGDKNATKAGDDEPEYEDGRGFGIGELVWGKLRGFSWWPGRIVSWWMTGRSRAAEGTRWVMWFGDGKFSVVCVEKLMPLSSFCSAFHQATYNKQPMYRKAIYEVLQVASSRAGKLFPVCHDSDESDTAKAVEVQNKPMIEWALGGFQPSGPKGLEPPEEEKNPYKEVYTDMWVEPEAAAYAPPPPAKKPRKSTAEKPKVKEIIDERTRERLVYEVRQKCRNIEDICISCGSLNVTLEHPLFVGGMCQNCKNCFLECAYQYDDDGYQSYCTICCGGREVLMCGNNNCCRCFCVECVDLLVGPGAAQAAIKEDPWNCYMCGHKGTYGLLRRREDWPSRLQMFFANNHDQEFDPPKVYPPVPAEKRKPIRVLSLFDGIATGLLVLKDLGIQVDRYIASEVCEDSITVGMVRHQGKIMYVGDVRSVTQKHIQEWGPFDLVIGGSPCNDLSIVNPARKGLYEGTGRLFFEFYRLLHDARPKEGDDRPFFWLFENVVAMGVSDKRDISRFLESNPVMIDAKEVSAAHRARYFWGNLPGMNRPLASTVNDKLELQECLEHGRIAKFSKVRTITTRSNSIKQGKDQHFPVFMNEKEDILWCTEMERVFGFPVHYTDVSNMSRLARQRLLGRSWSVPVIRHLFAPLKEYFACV

B1: GST-ISGF3γ protein (other)
chain: MASGRARCTRKLRNWVVEQVESGQFPGVCWDDTAKTMFRIPWKHAGKQDFREDQDAAFFKAWAIFKGKYKEGDTGGPAVWKTRLRCALNKSSEFKEVPERGRMDVAEPYKVYQLLPPGIVSGQPGTQKVPSKRQHSSVSSERKEEEDAMQNCTLSPSVLQDSLNNEEEGASGGAVHSDIGSSSSSSSPEPQEVTDTTEAPFQGDQRSLEFLLPPEPDYSLLLTFIYNGRVVGEAQVQSLDCRLVAEPSGSESSMEQVLFPKPGPLEPTQRLLSQLERGILVASNPRGLFVQRLCPIPISWNAPQAPPGPGPHLLPSNECVELFRTAYFCRDLVRYFQGLGPPPKFQVTLNFWEESHGSSHTPQNLITVKMEQAFARYLLEQTPEQQAAILSLV
notes: Recombinant fusion used at 2 µg on the DNMT3A peptide membrane; not shown: GST (glutathione S-transferase) tag
binding result: binds

Source: patent US20180238885A1 (INSERM INSITUT NATIONAL DE LA SANTE ET DE LA RECHERCHE …, published 2018)
